Measurements from paper PMC6823300, “The molecular basis of monopolin recruitment to the kinetochore” (Chromosoma, 2019).
Where no end group is shown, it is not given here. The star is where a group is joined. FITC = O=C1OC2(c3ccc(O)cc3Oc3cc(O)ccc32)c2ccc(NC(=S)*)cc21

T1: S. pombe Csm1 C-terminal globular domain (residues 125–261), wild type (S. pombe, UniProt O13684 125-261)
T1 construct: S. pombe Csm1 (also called Pcs1), C-terminal globular domain, residues 125-261; also called S. pombe Csm1^125–261; Sp Csm1; source: E. coli Rosetta2 (DE3) pLysS, purified
T1 sequence (looked up): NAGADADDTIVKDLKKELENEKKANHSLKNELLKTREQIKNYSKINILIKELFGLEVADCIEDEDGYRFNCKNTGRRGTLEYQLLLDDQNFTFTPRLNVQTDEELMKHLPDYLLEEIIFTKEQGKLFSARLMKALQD

T2: S. cerevisiae Csm1 globular domain (residues 69–190 of 190), untagged (S. cerevisiae, UniProt P25651 69-190)
T2 construct: S. cerevisiae Csm1, globular domain, residues 69-190 of 190; also called Sc Csm1^69–190; untagged Csm1
T2 sequence (looked up): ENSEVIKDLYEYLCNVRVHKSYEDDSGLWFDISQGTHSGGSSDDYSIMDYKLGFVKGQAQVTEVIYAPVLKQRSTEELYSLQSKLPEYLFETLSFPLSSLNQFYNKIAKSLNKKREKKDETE

B1: Sp Mis13 5–17 peptide (Dsn1-N/Box 1), fluorescein isothiocyanate-labelled (peptide)
peptide: {FITC}-PEEQEGFVFVRKG
notes: S. pombe Mis13 (Dsn1), Dsn1-N/Box 1 region, residues 5-17; also called Sp Dsn1-N/Box 1 (residues 5–17); S. pombe Mis13 Dsn1-N region
B2: His6-MBP-fused S. cerevisiae Dsn1 Box 1-2-3 region (residues 71–110 of 576) (domain or fragment, UniProt P40568 71-110, looked up)
chain: DLKFKRHKNKHIQGFPTLGERLDNLQDIKKAKRVENFNSS
notes: S. cerevisiae Dsn1, Box 1-2-3 region, residues 71-110 of 576; also called Sc Dsn1^71–110; His6-MBP-fused Dsn1 fragment; source: E. coli Rosetta2 (DE3) pLysS, purified

What was measured:
[1] = target: T1, S. pombe Csm1 C-terminal globular …; experiment: fluorescence polarisation; Csm1 125–261 at 20 nM-250 μM with 20 nM FITC-labelled Mis13 5–17 peptide; 20 mM Tris 7.5, 300 mM NaCl, 10% glycerol, 0.01% NP-40, 1 mM DTT; triplicate; single-site binding model; conditions: both partners purified
[2] = target: T2, S. cerevisiae Csm1 globular domain …; experiment: ITC; Microcal ITC 200; His6-MBP-fused Dsn1 fragments at 1–1.5 mM injected into a sample cell containing untagged Csm1 at 100–200 μM; protein buffer (20 mM Tris-HCl pH 7.5, 5% glycerol) plus 300 mM NaCl and 1 mM dithiothreitol; conditions: both partners purified

| Binder | Kd [1] [µM] | Kd [2] [µM] |
| --- | --- | --- |
| B1 | 22 | – |
| B2 | – | 12 |
